Assay results published in patent US20200024330A1.

What was measured:
[1] = target: HIV-1 MGRM-Chronic-B-010 Env (pseudovirus) (HIV-1); assay: cell-based or functional assay
[2] = target: HIV-1 Env of isolate MG RM-AG-008 (HIV-1); assay: cell-based or functional assay
[3] = target: HIV-1 JR-FL Env (pseudovirus) (HIV-1); assay: cell-based or functional assay
[4] = target: HIV-1 Env of isolate MG RM-AG-006 (HIV-1); assay: cell-based or functional assay
[5] = target: HIV-1 APV13 envelope glycoprotein (Env) on pseudovirus (HIV-1); assay: cell-based or functional assay
[6] = target: HIV-1 JR-CSF Env I323A (HIV-1 isolate JR-CSF) (UniProt P20871); assay: cell-based or functional assay
[7] = target: HIV-1 JR-CSF Env N396A (HIV-1 (isolate JR-CSF)) (UniProt P20871); assay: cell-based or functional assay
[8] = target: HIV-1 JR-CSF Env N339A (HIV-1 isolate JR-CSF) (UniProt P20871); assay: cell-based or functional assay
[9] = target: HIV-1 JR-CSF Env P299A (HIV-1 JR-CSF) (UniProt P20871); assay: cell-based or functional assay
[10] = target: HIV-1 JR-CSF Env P313A (HIV-1 JR-CSF) (UniProt P20871); assay: cell-based or functional assay
[11] = target: HIV-1 JR-CSF Env T202A (HIV-1 JR-CSF) (UniProt P20871); assay: cell-based or functional assay
[12] = target: HIV-1 APV6 envelope glycoprotein (Env) (HIV-1); assay: cell-based or functional assay
[13] = target: HIV-1 MGRM-C-028 envelope glycoprotein (Env) (HIV-1); assay: cell-based or functional assay
[14] = target: HIV-1 JR-CSF Env N241A (HIV-1 JR-CSF) (UniProt P20871); assay: cell-based or functional assay
[15] = target: HIV-1 JR-CSF Env T413A (HIV-1 (isolate JR-CSF)) (UniProt P20871); assay: cell-based or functional assay
[16] = target: HIV-1 MGRM-C-027 envelope glycoprotein (Env) (HIV-1); assay: cell-based or functional assay
[17] = target: HIV-1 Env of isolate MGRM-A-012 (HIV-1); assay: cell-based or functional assay
[18] = target: HIV-1 APV13 envelope glycoprotein (Env) (HIV-1); assay: cell-based or functional assay
[19] = target: HIV-1 Env of isolate MGRM-A-008 (HIV-1); assay: cell-based or functional assay
[20] = target: HIV-1 Env of isolate 94KE105 (HIV-1); assay: cell-based or functional assay
[21] = target: WT JR-FL gp120 (HIV-1 (isolate JR-FL)); assay: ELISA on coated gp120; EC50 by nonlinear regression
[22] = target: JR-FL gp120 ΔV1/ΔV2 (HIV-1 (isolate JR-FL)); assay: as above
[23] = target: HIV-1 envelope glycoprotein (Env) of isolate MGRM-C-014, on pseudovirus (HIV-1); assay: cell-based or functional assay
[24] = target: HIV-1 envelope glycoprotein (Env) of isolate MGRM-C-025, on pseudovirus (HIV-1); assay: cell-based or functional assay
[25] = target: HIV-1 92UG005 Env (on pseudovirus) (HIV-1); assay: cell-based or functional assay
[26] = target: HIV-1 envelope glycoprotein (Env) of isolate MGRM-C-028, on pseudovirus (HIV-1); assay: cell-based or functional assay
[27] = target: HIV-1 JRCSF Env (on pseudovirus) (HIV-1) (UniProt P20871); assay: cell-based or functional assay
[28] = target: HIV-1 envelope glycoprotein (Env) of isolate 6535.3, on pseudovirus (HIV-1); assay: cell-based or functional assay
[29] = target: HIV-1 Env of isolate 93RW029 (HIV-1); assay: cell-based or functional assay
[30] = target: HIV-1 Env of isolate 92RW026 (HIV-1); assay: cell-based or functional assay
[31] = target: HIV-1 envelope glycoprotein (Env) of isolate APV_6, on pseudovirus (HIV-1); assay: cell-based or functional assay
[32] = target: HIV-1 Env of isolate MGRM-C-025 (subtype C), on pseudovirus (HIV-1); assay: cell-based or functional assay
[33] = target: HIV-1 Env of isolate SC422661.8 (subtype B) (HIV-1); assay: cell-based or functional assay
[34] = target: HIV-1 Env of isolate MGRM-C-028 (subtype C), on pseudovirus (HIV-1); assay: cell-based or functional assay
[35] = target: HIV-1 Env of isolate MGRM-D-028 (HIV-1); assay: cell-based or functional assay
[36] = target: HIV-1 envelope glycoprotein (Env) of isolate MGRM-Chronic-B-002, on pseudovirus (HIV-1); assay: cell-based or functional assay
[37] = target: HIV-1 MGRM-F1-013 Env (pseudovirus) (HIV-1); assay: cell-based or functional assay
[38] = target: aMLV envelope protein on pseudovirus (aMLV); assay: cell-based or functional assay

## 5145_B14 (PGT-127) (antibody)
[1]
  IC50, pseudovirus neutralization: 0.019 mg/L
[2]
  neutralization IC50: > 50 mg/L
[3]
  IC50, pseudovirus neutralization: 0.029 mg/L
[4]
  neutralization IC50: 0.021 mg/L

## 5147_N06 (PGT-130) (antibody)
[5]
  IC50 (ug/ml), neutralizing activity: 0.0345 µg/mL

## PGT-121 (antibody)
[6]
  Fold IC50 increase relative to wild-type: 1.9 fold
[7]
  Fold IC50 increase relative to wild-type: 1.3 fold
[8]
  Fold IC50 increase relative to wild-type: 0.5 fold
[9]
  Fold IC50 increase relative to wild-type: 0.2 fold
[10]
  Fold IC50 increase relative to wild-type: 0.5 fold
[11]
  Fold IC50 increase relative to wild-type: 1.2 fold
[12]
  IC50 neutralization: 0.0423 mg/L
[13]
  IC50 neutralization: 1.19 mg/L
[14]
  Fold IC50 increase relative to wild-type: 0.5 fold
[15]
  Fold IC50 increase relative to wild-type: 0.5 fold
[16]
  IC50 neutralization: 0.0094 mg/L
[17]
  IC50 (µg/mL), pseudovirus neutralization: 0.092 µg/mL
[18]
  IC50 neutralization: 0.316 mg/L
[19]
  IC50 (µg/mL), pseudovirus neutralization: > 50 µg/mL
[20]
  IC50 (µg/mL), pseudovirus neutralization: 0.029 µg/mL
[21]
  EC50: 0.2 mg/L
[22]
  EC50: 0.2 mg/L

## PGT-122 (antibody)
[6]
  Fold IC50 increase relative to wild-type: 2.2 fold
[7]
  Fold IC50 increase relative to wild-type: 1.1 fold
[8]
  Fold IC50 increase relative to wild-type: 0.4 fold
[9]
  Fold IC50 increase relative to wild-type: 0.5 fold
[10]
  Fold IC50 increase relative to wild-type: 0.4 fold
[11]
  Fold IC50 increase relative to wild-type: 1.5 fold
[12]
  IC50 neutralization: 0.0851 mg/L
[13]
  IC50 neutralization: 2.06 mg/L
[14]
  Fold IC50 increase relative to wild-type: 1.4 fold
[15]
  Fold IC50 increase relative to wild-type: 0.8 fold
[16]
  IC50 neutralization: 0.0388 mg/L
[17]
  IC50 (µg/mL), pseudovirus neutralization: 0.257 µg/mL
[18]
  IC50 neutralization: 0.992 mg/L
[19]
  IC50 (µg/mL), pseudovirus neutralization: > 50 µg/mL
[20]
  IC50 (µg/mL), pseudovirus neutralization: 0.056 µg/mL
[21]
  EC50: 0.3 mg/L
[22]
  EC50: 0.3 mg/L

## PGT-141 (4964_G22; 4993_K13) (antibody)
[23]
  IC50, pseudovirus neutralization: 11.8 mg/L
[24]
  IC50, pseudovirus neutralization: 0.247 mg/L
[25]
  IC50 (ug/ml), pseudovirus neutralization: > 10 µg/mL
[26]
  IC50, pseudovirus neutralization: 13.8 mg/L
[27]
  IC50 (ug/ml), pseudovirus neutralization: 0.0047 µg/mL

## PGT-142 (4995_E20) (antibody)
[23]
  IC50, pseudovirus neutralization: 6.02 mg/L
[24]
  IC50, pseudovirus neutralization: 0.183 mg/L
[25]
  IC50 (ug/ml), pseudovirus neutralization: > 10 µg/mL
[26]
  IC50, pseudovirus neutralization: 2.12 mg/L
[27]
  IC50 (ug/ml), pseudovirus neutralization: 0.0085 µg/mL

## PGT-143 (4980_N08) (antibody)
[23]
  IC50, pseudovirus neutralization: 8.81 mg/L
[24]
  IC50, pseudovirus neutralization: 0.336 mg/L
[25]
  IC50 (ug/ml), pseudovirus neutralization: > 10 µg/mL
[26]
  IC50, pseudovirus neutralization: 12.4 mg/L
[27]
  IC50 (ug/ml), pseudovirus neutralization: 0.0064 µg/mL

## PGT-144 (4970_K22) (antibody)
[23]
  IC50, pseudovirus neutralization: > 50 mg/L
[24]
  IC50, pseudovirus neutralization: 17.6 mg/L
[25]
  IC50 (ug/ml), pseudovirus neutralization: > 10 µg/mL
[26]
  IC50, pseudovirus neutralization: > 50 mg/L
[27]
  IC50 (ug/ml), pseudovirus neutralization: 0.128 µg/mL

## PGV04 (antibody)
[28]
  IC50, pseudovirus neutralization: 0.757 mg/L
[29]
  IC50: 0.54 mg/L
[30]
  IC50: 0.14 mg/L
[31]
  IC50, pseudovirus neutralization: 24.2 mg/L
[32]
  IC50 (µg/mL), pseudovirus neutralization: > 50 µg/mL
[33]
  IC50 (µg/mL), pseudovirus neutralization: 0.11 µg/mL
[34]
  IC50 (µg/mL), pseudovirus neutralization: 0.149 µg/mL
[35]
  IC50 (µg/mL), pseudovirus neutralization: 1.01 µg/mL
[17]
  IC50 (µg/mL), pseudovirus neutralization: 0.225 µg/mL
[19]
  IC50: 0.555 mg/L
[36]
  IC50, pseudovirus neutralization: 0.142 mg/L
[20]
  IC50 (µg/mL), pseudovirus neutralization: 2.98 µg/mL

## VRC01 (antibody)
[23]
  IC50, pseudovirus neutralization: > 50 mg/L
[24]
  IC50, pseudovirus neutralization: 2.36 mg/L
[35]
  IC50, pseudovirus neutralization: 0.377 mg/L
[26]
  IC50, pseudovirus neutralization: 0.319 mg/L

## b12 (antibody)
[37]
  IC50 (µg/ml), pseudovirus neutralization: > 50 µg/mL
[38]
  IC90 (pseudovirus neutralization): > 50 mg/L
